Literature values as cited in paper PMC4431351.

Biological target: MUC1 tandem-repeat synthetic peptide (UniProt P15941)
Details: Probe assembled in 5 mM sodium phosphate pH 7.4, then PBS (10 mM sodium phosphate, 140 mM NaCl, 2.70 mM KCl, pH 7.6), room temperature; cell incubation details …

UniProt P15941, sequence (P15941 whole entry): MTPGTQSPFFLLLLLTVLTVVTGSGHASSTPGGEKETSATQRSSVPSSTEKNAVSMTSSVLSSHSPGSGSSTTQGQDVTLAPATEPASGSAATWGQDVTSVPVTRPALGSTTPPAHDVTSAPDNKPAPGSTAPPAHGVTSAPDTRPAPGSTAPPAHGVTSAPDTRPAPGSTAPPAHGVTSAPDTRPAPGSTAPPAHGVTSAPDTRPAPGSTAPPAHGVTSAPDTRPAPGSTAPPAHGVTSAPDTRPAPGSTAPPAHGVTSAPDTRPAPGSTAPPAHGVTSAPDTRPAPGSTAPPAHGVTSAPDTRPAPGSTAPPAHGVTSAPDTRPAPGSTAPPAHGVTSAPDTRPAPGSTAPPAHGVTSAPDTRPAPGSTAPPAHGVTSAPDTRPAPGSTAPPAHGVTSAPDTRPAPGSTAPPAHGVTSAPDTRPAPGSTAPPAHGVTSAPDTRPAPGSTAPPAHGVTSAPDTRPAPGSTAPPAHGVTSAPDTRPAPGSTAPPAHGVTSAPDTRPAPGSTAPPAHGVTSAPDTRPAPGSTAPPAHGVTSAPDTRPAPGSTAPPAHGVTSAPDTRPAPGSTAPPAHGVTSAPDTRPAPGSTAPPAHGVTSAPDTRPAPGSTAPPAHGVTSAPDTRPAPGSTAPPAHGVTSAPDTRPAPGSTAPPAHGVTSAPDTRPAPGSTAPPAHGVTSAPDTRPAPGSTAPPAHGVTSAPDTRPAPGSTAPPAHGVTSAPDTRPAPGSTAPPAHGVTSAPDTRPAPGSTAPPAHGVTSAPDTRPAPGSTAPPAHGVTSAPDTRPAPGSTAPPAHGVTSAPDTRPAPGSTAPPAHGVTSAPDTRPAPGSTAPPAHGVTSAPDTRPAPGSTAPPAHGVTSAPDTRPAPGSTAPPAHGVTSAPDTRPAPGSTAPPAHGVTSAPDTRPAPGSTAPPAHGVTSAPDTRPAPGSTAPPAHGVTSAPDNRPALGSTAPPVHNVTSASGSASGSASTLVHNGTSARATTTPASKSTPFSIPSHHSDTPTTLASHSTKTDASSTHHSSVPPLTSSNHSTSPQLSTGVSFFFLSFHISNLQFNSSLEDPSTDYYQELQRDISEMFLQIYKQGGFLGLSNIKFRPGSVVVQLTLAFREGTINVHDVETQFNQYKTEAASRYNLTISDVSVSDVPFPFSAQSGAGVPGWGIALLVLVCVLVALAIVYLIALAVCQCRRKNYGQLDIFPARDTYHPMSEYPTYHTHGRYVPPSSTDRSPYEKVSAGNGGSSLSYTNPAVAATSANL

## GCAGTTGATCCTTTGGATACCCTGG [AptMUC1 (25-mer)]
  Kd: 0.1 nM
